Laboratory results reported in PMC7139957.

Biological target: laminin-111 (UniProt P19137)
Assay: AFM single-molecule force spectroscopy; integrin coupled to PEG-functionalized cantilever, laminin-111 (3 µg/mL) coated on mica; contact 1 s, retraction 300 nm/s; rupture force of the last contact

| rupture force [pN] | Substance |
| --- | --- |
| 16 | soluble recombinant integrin α7hiβ1 ectodomains (hinge mutant, C604 and C610 replaced by alanine), heterodimerized with the zipper domains of Fos and Jun (from UniProt P05556 21-728) (complex) |
| 30 | soluble recombinant integrin α7wtβ1 ectodomains, heterodimerized with the zipper domains of Fos and Jun (from UniProt P05556 21-728) (complex) |
